The values below come from US20250250357A1 (NANJING ZAIMING PHARMACEUTICAL, published 2025).

Residue numbers refer to the chain shown, from its start. Like-named read-outs stand apart in the source and are kept apart here.

Test [1] addresses T1, human MSLN-R3 protein (Met487-Ser606 of NCBI AAH09272.1) expressed on HEK293T-hMSLN-R3 cells (human, UniProt Q13421 487-606).
T1 construct: also called Region3
Briefly: FACS on HEK293T-hMSLN-R3 cells.

In test [2] the target is T1, human MSLN-R3 protein (Met487-Ser606 of …). Kind of test: FACS on HEK293T-hMSLN-R3 cells. The source holds these as a separate data set.
For test [3], the target named is T2, human MSLN-FL-his protein (human, UniProt Q13421 296-580).
T2 construct: made in HEK293E cells, purified on nickel column; also called hMSLN-FL-his; human MSLN full-length protein; not shown: His tag
Briefly: competitive ELISA; row F1.2.12.

For test [4], the target named is T2, human MSLN-FL-his protein. Briefly: competitive ELISA; row F1.56.1. In general terms: An ELISA detects its analyte on a solid surface through an enzyme-linked reagent.
In test [5] the target is T2, human MSLN-FL-his protein. Kind of test: competitive ELISA; row F2.13.3.
Test [6] concerns the target T2, human MSLN-FL-his protein. Briefly: competitive ELISA; row F2.17.3.
In test [7] the target is T2, human MSLN-FL-his protein. Kind of test: competitive ELISA; row F2.39.3.
The target in test [8] is T2, human MSLN-FL-his protein. Briefly: competitive ELISA; row F2.58.8.
In test [9] the target is T2, human MSLN-FL-his protein. Kind of test: competitive ELISA; row F1.35.24.
The target of test [10] is T2, human MSLN-FL-his protein. Briefly: competitive ELISA; row F2.16.10.
The target of test [11] is T2, human MSLN-FL-his protein. Briefly: competitive ELISA; row F2.24.10.
Test [12] addresses T2, human MSLN-FL-his protein. Kind of test: competitive ELISA; row Tab108 (R3).
In test [13] the target is T2, human MSLN-FL-his protein. Kind of test: competitive ELISA; row Tab142 (R1).
Test [14] concerns the target T2, human MSLN-FL-his protein. Kind of test: SPR (Biacore), antibody captured on Protein A chip. (Surface plasmon resonance follows binding to a sensor surface in real time, without labels.)
Test [15] concerns the target T2, human MSLN-FL-his protein. Briefly: competitive ELISA; row Tab107 (conformation).
Test [16] has as its target T3, human MSLN protein endogenously expressed on OVCAR3 tumor cells (human, UniProt Q13421 296-598).
T3 construct: whole, on cells; Endogenous target on OVCAR3 cells; kept apart from the recombinant full-length construct; also called mesothelin
Briefly: FACS on OVCAR3 cells.

For test [17], the target named is T4, human MSLN full-length protein (NCBI: AAH09272.1) expressed on HEK293T-hMSLN-B8 cells (human, UniProt Q13421 296-598).
T4 construct: Whole encoded precursor
Briefly: FACS on HEK293T-hMSLN-B8 cells.

Test [18] concerns the target T1, human MSLN-R3 protein (Met487-Ser606 of …). Kind of test: FACS on HEK293T-hMSLN-R3 cells. This is another data set of the same source.
In test [19] the target is T5, monkey MSLN full-length protein (NCBI: XP_028696439.1) expressed on HEK293T-monkey MSLN cells (monkey).
T5 construct: Whole encoded precursor
T5 chain: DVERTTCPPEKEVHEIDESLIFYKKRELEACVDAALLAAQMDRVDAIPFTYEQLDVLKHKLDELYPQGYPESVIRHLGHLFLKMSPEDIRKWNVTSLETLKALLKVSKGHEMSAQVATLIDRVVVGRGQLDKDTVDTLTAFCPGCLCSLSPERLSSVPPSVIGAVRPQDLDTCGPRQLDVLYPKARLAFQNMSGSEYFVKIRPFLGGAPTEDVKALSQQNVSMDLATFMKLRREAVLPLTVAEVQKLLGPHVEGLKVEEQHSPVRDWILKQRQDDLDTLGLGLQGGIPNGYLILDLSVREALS
Kind of test: FACS on HEK293T-monkey MSLN cells.
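Throughout, for Kd: measured at 25 °C, analyte injected 240 s in five twofold dilutions from 200 nM, dissociation up to 600 s, double-referenced, fitted with Langmuir 1:1 model.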
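Throughout, for koff: measured at 25 °C, analyte injected 240 s in five twofold dilutions from 200 nM, dissociation up to 600 s, double-referenced, fitted with Langmuir 1:1 model.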
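Throughout, for kon: measured at 25 °C, analyte injected 240 s in five twofold dilutions from 200 nM, dissociation up to 600 s, double-referenced, fitted with Langmuir 1:1 model.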

T1 sequence (Q13421 495-614): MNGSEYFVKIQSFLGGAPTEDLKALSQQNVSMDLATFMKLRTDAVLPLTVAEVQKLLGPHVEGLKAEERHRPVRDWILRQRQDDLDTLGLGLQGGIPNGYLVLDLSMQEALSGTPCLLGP
T2 sequence (Q13421 other isoform, or with tags, fused parts or gaps): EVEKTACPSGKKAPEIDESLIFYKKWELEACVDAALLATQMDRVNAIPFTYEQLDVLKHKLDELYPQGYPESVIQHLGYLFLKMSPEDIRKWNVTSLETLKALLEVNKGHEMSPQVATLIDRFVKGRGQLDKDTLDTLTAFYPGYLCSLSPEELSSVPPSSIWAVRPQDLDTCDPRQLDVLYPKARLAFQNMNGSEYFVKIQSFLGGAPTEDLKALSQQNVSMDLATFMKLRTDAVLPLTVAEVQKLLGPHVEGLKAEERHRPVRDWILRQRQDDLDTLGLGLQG
T3 sequence (Q13421 other isoform, or with tags, fused parts or gaps): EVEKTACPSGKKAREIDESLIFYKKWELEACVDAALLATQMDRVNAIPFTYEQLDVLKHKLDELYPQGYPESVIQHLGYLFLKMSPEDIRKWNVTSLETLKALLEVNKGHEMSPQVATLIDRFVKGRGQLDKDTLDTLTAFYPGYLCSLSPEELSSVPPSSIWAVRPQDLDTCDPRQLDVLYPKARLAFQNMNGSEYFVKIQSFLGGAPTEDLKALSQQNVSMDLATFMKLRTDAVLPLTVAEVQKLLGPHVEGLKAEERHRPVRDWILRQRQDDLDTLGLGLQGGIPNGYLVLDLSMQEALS
T4 sequence (Q13421 other isoform, or with tags, fused parts or gaps limits assumed): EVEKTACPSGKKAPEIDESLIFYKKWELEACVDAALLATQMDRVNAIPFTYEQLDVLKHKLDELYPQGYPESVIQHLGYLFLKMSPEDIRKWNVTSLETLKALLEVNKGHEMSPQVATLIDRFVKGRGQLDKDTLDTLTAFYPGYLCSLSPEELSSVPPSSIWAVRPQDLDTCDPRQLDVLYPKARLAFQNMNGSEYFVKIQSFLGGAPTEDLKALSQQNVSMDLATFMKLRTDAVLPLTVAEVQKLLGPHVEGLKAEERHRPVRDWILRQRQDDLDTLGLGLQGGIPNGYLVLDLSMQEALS

B1: Tab106 (YP218, hIgG1) (antibody, V domains shown)
VH: QQQLEESGGGLVKPEGSLTLTCKASGFDLGFYFYACWVRQAPGKGLEWIACIYTAGSGSTYYASWAKGRFTISKASSTTVTLQMTSLAAADTATYFCARSTANTRSTYYLNLWGPGTLVTVSS
VL: DVVMTQTPASVSEPVGGTVTIKCQASQRISSYLSWYQQKPGQRPKLLIFGASTLASGVPSRFKGSGSGTEYTLTISDLECADAATYYCQSYAYFDSNNWHAFGGGTEVVVRT
notes: Control antibody; also called YP218 human IgG1 antibody
B1: in [1], the EC50 is 0.28 nM and the “Maximum mean fluorescence intensity” value came to 25400. Moreover, in [2], the EC50 was determined as 0.65 nM and the “Maximum mean fluorescence intensity” value was 7460.

B2: S009-F1.35.24 (antibody, human IgG1, kappa, V domains shown)
VH: EVQLQQSEPELVKPGASVRISCKASGYSFTDYYMHWVKQSPENRLEWIGEINPSTGGTSYNPKFKDKATLTVDKSSSTAYMQLKSLTSEESAVYYCTRYHYYGSSSYVMDYWGQGTSVTVSS
VL: QIVLTQSPAILSASPGERVTMTCSASSSVYHMHWFQQKSGTSPKRWVYDTSKLASGVPARFSGSGSGTSYSLTISSMEAEDAATYYCQHWRTNPLTFGAGTKLELKR
notes: human-murine chimeric antibody, human IgG1/kappa constant regions
As to B2, the competition rate in test [3] is -15%; in [4], 97%; in [5] it was 29%; in test [6], 59%; in [7] it was 67%; in test [8], 100%. Also, the competition rate in test [9] was found to be 100%; in test [10], 31%; in test [11], 13%; in test [12], 62%; in [13], 49%; in test [15], 36%. Further, the Kd in [14] is 0.914 nM. In addition, in test [14], the off-rate constant (koff) was 8.51e-05 s⁻¹. In test [14], the kon was 93100 M⁻¹ s⁻¹.

B3: S009-F1.56.1 (antibody, human IgG1, kappa, V domains shown)
VH: EVQLQQSGAEVVKPGASVKLSCTASGFNIRHTYMHWVKQRPEQGLEWIGRIDPANGNTEYDPKFQGKATITADTSSNTAYLQLSSLTSEDTAVYYCARDGWYIDVWGAGTTVTVSS
VL: DIVMSQSPSSLAVSVGEKVTMSCKSSQSLLYSNNQKNYLAWYQQKPGQSPKLLIYWASTRESGVPDRFTGSGSGTDFTLTISSVKAEDLAVYYCQRYYSYPWTFGGGTKLEIKR
notes: as for B2
As to B3, the competition rate in test [3] was 75%; in [4] it was 104%; in test [5], -588%; in [6], -6%; in [7], 69%; in test [8], 107%. In addition, the competition rate in test [9] is 79%; in test [10], -7%; in test [11], -39%; in test [12] it was -36%; in test [13], 9%; in test [15] it was -35%. This molecule also registered a Kd in test [14] of 0.889 nM. Further, the koff in [14] was 0.00071 s⁻¹. Also, the kon in [14] is 799000 M⁻¹ s⁻¹.

B4: S009-F2.13.3 (antibody, human IgG1, kappa, V domains shown)
VH: QVQLQQSGAELMKPGASVKLSCKATGYTFTGYWIEWVKQRPGHGLEWIGEILPGSGSTNYNEKFKGKATFTADTSSNTAYMQLSSLTTEDSAIYYCARAGAWFAYWGQGTLVTVSA
VL: QIVLTQSPAIMSASLGERVTMTCTASSSVSSSYLHWYQQKPGSSPKLWTYSTSNLASGVPARFSGSGSGTSYSLTISSMEAEDAATYYCHQYHRSPWTFGGGTKLEIKR
notes: as for B2
Regarding B4, the competition rate is 23% in test [3]; -426% in test [4]; 84% in test [5]; -11% in test [6]; 13% in [7]; -86% in test [8]. Moreover, the competition rate is 7% in test [9]; -41% in test [10]; -65% in test [11]; -105% in test [12]; -33% in test [13]; -54% in test [15]. Besides, in test [14], the affinity, expressed as Kd, was 8.65 nM. This molecule also had a koff in [14] of 0.00189 s⁻¹. Further, the kon in [14] was 219000 M⁻¹ s⁻¹.

B5: S009-F3-63.5 (antibody, human IgG1, kappa, V domains shown)
VH: QVQLQQSGAELVRPGASVTLSCKASGYTFTDYEMHWVKQTPVHGLEWIGGIDPETGDTAYNQQFKGKAILTADRSSSTAYMELRSLTSEDSAVYYCTNYASSREDYWGQGTTLTVSS
VL: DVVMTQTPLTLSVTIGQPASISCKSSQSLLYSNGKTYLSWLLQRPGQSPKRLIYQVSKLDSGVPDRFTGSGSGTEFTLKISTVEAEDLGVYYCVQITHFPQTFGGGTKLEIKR
notes: as for B2
Turning to B5, the “Maximum mean fluorescence intensity” value was 227 in test [16], 35400 in [17], 8270 in test [18] and 105 in [19]. For the same molecule, in [18], a half-maximal response (EC50) required 1.18 nM. Besides, the binding result in test [19] is on record as “no binding”.

B6: S009-F3.51.8 (antibody, human IgG1, kappa, V domains shown)
VH: QVQLQQSGAELVRPGASVTLSCKASGYTFTDYEMHWVKQTPVHGLEWIGGFDPETGGTAHNQKFKGKAILTADKSSSTAYMELRSLTSEDSAVYYCSNYGSIWGDCWGQGTSVTVSS
VL: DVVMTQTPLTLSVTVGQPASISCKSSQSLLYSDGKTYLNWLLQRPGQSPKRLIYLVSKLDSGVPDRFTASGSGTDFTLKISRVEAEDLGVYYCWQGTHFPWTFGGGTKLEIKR
notes: as for B2
As for B6, the “Maximum mean fluorescence intensity” value was 337 in test [16], 27900 in test [17], 4470 in [18] and 88 in test [19]. Further, the figures for the EC50 in [17] and in test [18] were 21.8 nM and 0.75 nM, respectively. Besides, in [19], the binding result is “no binding”.

B7: S009-F3.74.20 (antibody, human IgG1, kappa, V domains shown)
VH: RVQLQQSGAELVRPGASVTLSCKASGYTFTDSEMHWVKQTPVHGLEWIGAIDPEIDGTAYNQNFRDKAILTADKSSSTAYMELRSLTSEDSAVYYCTTYFGSGYGYFDVWGTGTTVTVSS
VL: DVVMTQTPLSLSVSLGDQASISCRSSQSLVYSNGNTYLHWFLQKPGQSPKLLIYKVSNRFSGVPDRFSGSGSGTDFTLKINRVEAEDLGVYFCSQSTHIPFTFGAGTKLELKR
notes: as for B2
With B7, the “Maximum mean fluorescence intensity” value came to 613 in test [16], 36400 in test [17], 5070 in test [18] and 188 in test [19]. For the same molecule, the concentration giving a half-maximal response (EC50) in test [17] was found to be 8.68 nM; in [18], 0.62 nM.

B8: S009-F3.80.22 (antibody, human IgG1, kappa, V domains shown)
VH: QVQLQQSGAELVRPGASVTLSCKASGYTFTDYEIHWVKQTPVHGLEWIGAFDPEIGGSAYNQKFKDRATLTADKSSSTAYMELHSLTAEDSAVYYCTDYYGSSSGYFDVWGTGTTVTVSS
VL: B7 VL with S12P, V30E, Y31H, S32N, Q43H, N81S, I99V, A105S, L111I
notes: as for B2
B8: the “Maximum mean fluorescence intensity” value in test [16] stood at 263; in test [17], 24700; in [18] it was 4800; in [19], 57. Also, the figures for the EC50 in test [17] and in test [18] were 36.4 nM and 0.99 nM, respectively. Moreover, the binding result in test [19] is reported as “no binding”.

Broadly, the EC50 is the concentration needed to bring the measured effect to its halfway point. As a reminder, the Kd is the free concentration of one partner at which half of the binding sites on the other are occupied at equilibrium, for simple one-to-one binding. For orientation: koff means the rate constant with which the complex falls apart. The term kon denotes the second-order rate constant of association.
